Reference: the supplement of paper PMC9732359
± gives the uncertainty stated by the source.

Experiment: protein stability index of a GFP-peptide fusion (yeast GPS) (PSI 1-4); higher = more stable; sorted into four equal gates, so the index is relative within each strain
Summary of the method: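 Tiled yeast protein peptides of 17 residues were each joined downstream of GFP, on plasmids that also express Cherry. The pooled library was maintained in yeast, and mid-log cultures in leucine-free medium were sorted into four equal gates on the GFP/Cherry ratio. Plasmids from every gate were amplified by PCR and sequenced on Illumina, with barcodes linking reads to strains. The protein stability index of a peptide is its gate-number-weighted read frequency summed over the gates.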

Sequence | protein stability index (doa10∆) | protein stability index (pdr5∆) | protein stability index (san1∆) | protein stability index (ubr1∆)
EDRNQRIKEMYWKLWID [FAS1] | 3.17 ± 0.13 | 3.46 ± 0.1 | 3.16 ± 0.11 | 3.08 ± 0.087
EEAGSPLVYRHELITNI [RPB9] | 3.17 ± 0.076 | 3.39 ± 0.058 | 3.28 ± 0.049 | 3.38 ± 0.06
EEATTEEAGEEEAKEEV [RPS0A] | 2.69 ± 0.11 | 2.78 ± 0.17 | – | –
EEDFYTVVGNASFGKNL [DSN1] | 1.99 ± 0.12 | 1.38 ± 0.25 | 2.9 ± 0.23 | 3.12 ± 0.14
EEEIKKFDSRIRGILMA [PRP8] | 2.71 ± 0.066 | 2.81 ± 0.074 | 2.69 ± 0.052 | 3.02 ± 0.051
EEEMAPYYKYLCEEYLV [RPN7] | 2.12 ± 0.087 | 2.74 ± 0.11 | 2.5 ± 0.14 | 2.64 ± 0.093
EEGRAIPGEYITYALSG [RPS21B] | 2.99 ± 0.073 | 3.1 ± 0.11 | 2.88 ± 0.078 | 2.96 ± 0.044
EEKEEENGDEDEDEDED [QCR6] | 3.68 ± 0.17 | 3.34 ± 0.27 | 3.27 ± 0.084 | 3.64 ± 0.08
EELKDSEINEILARNDE [SNF2] | 3.2 ± 0.18 | 3.55 ± 0.12 | 2.66 ± 0.13 | 3.32 ± 0.089
EENNYQYGYSGSSAGMN [SNF6] | 2.22 ± 0.053 | 2.16 ± 0.077 | 1.94 ± 0.12 | 2.5 ± 0.065
EENWDDVEVDDDFTNEL [SEM1] | – | 3.13 ± 0.22 | 3.05 ± 0.2 | 3.3 ± 0.19
EEPAKEEAPAPTPAASA [FAS2] | 2.75 ± 0.14 | 2.82 ± 0.12 | 2.69 ± 0.26 | 2.98 ± 0.14
EEQLDALECRLASAIAS [CSN12] | – | 2.02 ± 0.15 | 2.38 ± 0.12 | 1.81 ± 0.088
EEQLDLLSAILDPSKSK [MED11] | 3.09 ± 0.099 | 3.18 ± 0.12 | 3.32 ± 0.11 | 3.64 ± 0.2
EETSHLLTVTPGPRLLY [RPN10] | 2.61 ± 0.06 | 2.69 ± 0.074 | 2.54 ± 0.091 | 3.06 ± 0.057
EETYEEKPQFKDGETTD [RPO26] | 3.24 ± 0.23 | 2.98 ± 0.28 | 3.47 ± 0.19 | 3.34 ± 0.14
EEYRKQLDKKNELQKFQ [SMC1] | 3.44 ± 0.22 | 3.43 ± 0.12 | 2.82 ± 0.079 | 3.45 ± 0.1
EEYVINLLKVSVDICNN [ECM29] | 2.15 ± 0.064 | 2.58 ± 0.063 | 2.7 ± 0.048 | 2.65 ± 0.053
EFCDEPSVGVKTMKTFV [RPB5] | 3.15 ± 0.12 | 3.56 ± 0.27 | – | –
EFFNPEIFHLLQPLEEG [SIN4] | 1.88 ± 0.079 | 1.84 ± 0.064 | 1.59 ± 0.086 | 2.07 ± 0.056
EFIAAVNNPQEETSHLL [RPN10] | 2.33 ± 0.12 | 3 ± 0.091 | 3 ± 0.14 | 2.82 ± 0.068
EGARMVRELFEMARTKK [RPT1] | 1.78 ± 0.12 | 1.7 ± 0.15 | – | –
EGDIQVLKSYGAAPYAA [RPT1] | 2.84 ± 0.095 | 2.83 ± 0.12 | 3.05 ± 0.082 | 2.82 ± 0.063
EGIKVVDIDDPDMMVDS [SNF2] | 3 ± 0.17 | 3.14 ± 0.19 | 3.12 ± 0.094 | 2.97 ± 0.091
EGKKVMAPYLPGSRASS [RPN2] | 2.47 ± 0.065 | 2.69 ± 0.074 | 2.4 ± 0.072 | 2.54 ± 0.052

Sequence | protein stability index (doa10∆) | protein stability index (pdr5∆) | protein stability index (san1∆) | protein stability index (ubr1∆)
EGLDLLKLCVQELEKRM [PRE1] | 2.04 ± 0.095 | 2.32 ± 0.076 | 2.19 ± 0.16 | 2.06 ± 0.059
EGLIIDTDKLPIKNRTS [SIN4] | 2.79 ± 0.11 | 2.85 ± 0.086 | 2.76 ± 0.074 | 2.94 ± 0.063
EGNAGGDQKTSENRNNI [YOR098C/NUP1] | – | 3.6 ± 0.17 | 3.19 ± 0.17 | 3.36 ± 0.074
EGNQGSLQEDVSFDFNG [MED8] | 3.17 ± 0.12 | 3.41 ± 0.085 | 3.23 ± 0.062 | 3.2 ± 0.07
EHASLLVRDSKPSKPFN [MED8] | 2.43 ± 0.057 | 2.67 ± 0.046 | 2.56 ± 0.05 | 2.55 ± 0.052
EHGMNAPSVPEFIYLTK [SNF2] | 3.21 ± 0.092 | 3.28 ± 0.077 | 2.91 ± 0.069 | 3.15 ± 0.059
EHHSSVKYASPNLNMKY [FAS2] | 3.17 ± 0.068 | 3 ± 0.06 | 2.94 ± 0.054 | 2.92 ± 0.04
EHKTPELISFKERTKSL [YIL149C/MLP2] | 2.85 ± 0.066 | 2.95 ± 0.076 | 2.93 ± 0.076 | 3.22 ± 0.079
EHNPSAHTASVGVVFGS [COR1] | 3.21 ± 0.16 | 3.24 ± 0.13 | 2.88 ± 0.14 | 2.22 ± 0.27
EIARQMRDKSFGRTLAS [RPL12A] | 3.25 ± 0.1 | 3.07 ± 0.12 | 2.88 ± 0.13 | 2.72 ± 0.18
EIELKKLPKVYKRSIVR [SWI1] | 2.11 ± 0.069 | 1.86 ± 0.071 | 2.68 ± 0.099 | 2.91 ± 0.074
EIENATKDIFPLQNIHV [RPS1A] | 2.1 ± 0.086 | 2.36 ± 0.27 | 1.11 ± 0.29 | 2.25 ± 0.083
EIEQLDQYIQKQVQISH [YGL172W/NUP49] | 2.91 ± 0.056 | 3.11 ± 0.05 | 2.75 ± 0.073 | 2.87 ± 0.059
EIEVDEMEVDAEGEEVE [RPN1] | 3.52 ± 0.084 | 3.68 ± 0.12 | 3.52 ± 0.082 | 3.49 ± 0.067
EINNLIQLPASLAATYS [ARP9] | 1.59 ± 0.063 | 1.87 ± 0.045 | 1.96 ± 0.07 | 1.65 ± 0.047
EIQRTMLELLNQLDGFD [RPT2] | 2.83 ± 0.088 | 2.97 ± 0.12 | 2.93 ± 0.067 | –
EIYTVEDRPPEYWAQRK [ISW2] | 3.44 ± 0.23 | 3.14 ± 0.14 | – | 3.31 ± 0.13
EKADYERELISNIEQTE [YIL149C/MLP2] | 3.34 ± 0.079 | 3.48 ± 0.087 | 3.27 ± 0.063 | 3.6 ± 0.098
EKFSSFIESIVVDFKNK [SNF12] | 2.69 ± 0.065 | 2.84 ± 0.078 | 2.74 ± 0.081 | 2.77 ± 0.061
EKKQKTESQDVETRVQN [DPB4] | 3.52 ± 0.11 | 3.38 ± 0.072 | 3.35 ± 0.048 | 3.3 ± 0.056
EKLINNSDDCMMEEIIN [ECM29] | 3.36 ± 0.11 | 3.1 ± 0.11 | 3.1 ± 0.066 | 3.13 ± 0.12
EKLLRHVDSLIEDFVDG [SRB7] | 3.2 ± 0.08 | 3.2 ± 0.083 | 3.22 ± 0.061 | 3.24 ± 0.057
EKLVSDLRLIKVPQQAA [SMC1] | 3.19 ± 0.18 | 3.44 ± 0.16 | 2.16 ± 0.24 | 3.3 ± 0.14
EKPLILADYIVEVLLVN [NUT1] | 1.91 ± 0.047 | 1.49 ± 0.039 | 1.65 ± 0.17 | 1.32 ± 0.039
EKTINDLQRTQTLSEKE [YIL149C/MLP2] | 2.97 ± 0.071 | 3.03 ± 0.06 | 2.94 ± 0.044 | 2.94 ± 0.042

Sequence | protein stability index (doa10∆) | protein stability index (pdr5∆) | protein stability index (san1∆) | protein stability index (ubr1∆)
EKYAAAAPAATSAASGD [RPP0] | 2.47 ± 0.097 | 2.15 ± 0.074 | 1.88 ± 0.13 | 2.78 ± 0.048
ELALIEEAYDNPHDTLN [PRP8] | 3.32 ± 0.088 | 3.3 ± 0.077 | 3.51 ± 0.076 | 3.41 ± 0.07
ELALLNHWRQNKGRAVY [BRR2] | 1.21 ± 0.21 | 1.21 ± 0.13 | 1.21 ± 0.29 | 1.1 ± 0.083
ELDILNKGWKLQSLNES [SRB4] | – | 3.05 ± 0.21 | 3 ± 0.18 | –
ELDTASRILKAQSRNVE [YGR119C/NUP57] | 2.35 ± 0.055 | 2.34 ± 0.063 | 2.03 ± 0.077 | 2.43 ± 0.056
ELENFLDNFETKTEALL [YJL041W/NSP1] | 2.62 ± 0.12 | 2.91 ± 0.14 | 2.72 ± 0.15 | 1.81 ± 0.1
ELGEIIDEDIGNNVQEN [RMP1] | – | – | 3.02 ± 0.26 | –
ELGEQKCQELVTNIRRI [RRP46] | 2.09 ± 0.072 | 1.81 ± 0.056 | 1.55 ± 0.15 | 1.98 ± 0.071
ELHKEGTISKLENKENG [SMC2] | 2.01 ± 0.12 | 2.61 ± 0.097 | 1.4 ± 0.076 | 1.62 ± 0.075
ELIQKYLGDGPRLCRQI [RPT2] | – | – | 2.76 ± 0.2 | –
ELKDICSFAVTKSSLND [YML103C/NUP188] | 2.87 ± 0.072 | 2.96 ± 0.065 | 2.89 ± 0.072 | 3.02 ± 0.05
ELLKSSLQKAGSKMEAK [AAR2] | 3.23 ± 0.077 | 3.35 ± 0.085 | 3.05 ± 0.079 | 3.07 ± 0.079
ELMAMNITPRLYTDRSR [RPB2] | 1.91 ± 0.12 | 1.68 ± 0.074 | 1.23 ± 0.13 | 1.96 ± 0.074
ELMDRTGLKLYSRITLI [RPP1] | 1.57 ± 0.11 | 2.66 ± 0.1 | 1.69 ± 0.1 | 2.43 ± 0.12
ELPKFILSDSPLELSAP [DIS3] | 2.5 ± 0.095 | 3.37 ± 0.17 | 2.85 ± 0.19 | 3.04 ± 0.092
ELQGYIELSVPDRQSMD [SRB5] | 1.36 ± 0.23 | – | – | 1.17 ± 0.21
ELSDKEIYTVEDRPPEY [ISW2] | 3.34 ± 0.13 | 3.45 ± 0.15 | 3.33 ± 0.17 | 3.42 ± 0.12
ELSEEKYIVKASSGPRY [RPT4] | 2.66 ± 0.21 | 2.72 ± 0.17 | 3.21 ± 0.098 | 2.41 ± 0.18
ELTDEYLAENPDPNFEN [PRP8] | 3.45 ± 0.077 | 3.16 ± 0.076 | 3.36 ± 0.077 | 3.32 ± 0.053
ELTLAEQQVKEAEMAYV [SMC4] | 3.02 ± 0.1 | 3.1 ± 0.076 | 2.81 ± 0.078 | 2.81 ± 0.074
ELWRKEQKLQTVLETLL [SMC3] | 2.9 ± 0.13 | 3.42 ± 0.11 | 2.7 ± 0.17 | 3.31 ± 0.064
EMIDSHIKEASEEVDDL [SNF2] | – | 2.81 ± 0.19 | 2.81 ± 0.094 | 3.09 ± 0.07
EMVKDRGYFITQEEVEL [RPB5] | 2.62 ± 0.071 | 2.08 ± 0.071 | 1.74 ± 0.066 | 2.1 ± 0.042
ENALIELKNELAKTKEN [YIL149C/MLP2] | 2.82 ± 0.087 | 2.97 ± 0.07 | 2.98 ± 0.068 | 2.93 ± 0.08
